Several values for one entry are separate records, joined by “and”; a condition that tells them apart may be missing. Equal entries are not always repeated. Non-standard residues stand in square brackets, D forms with d. No end group written: not given here.
Tests used:
[1] = system: Apo-A1 lipoprotein; assay: Preparation of fibrinogen- and Apo-A1-depleted plasma: Apo-A1 in flow-through (Example 5); type: binding, human
Procedure: (§1) Toyopearl AF Amino 650M resin displaying a peptide consisting essentially of the amino acid sequence D-ARQFDF (SEQ ID NO: 20) was suspended for 2 hours in 20% methanol. After washing with distilled water, the resin was packed into an Omni column (column volume (CV)=10 ml; diameter 1.5 cm; CF 1.77 cm^2) and equilibrated in 0.14 M NaCl, 0.020 M sodium citrate, pH 7.0 (EQ buffer). Fifty milliliters of filtered plasma (0.80 mm, Nalgene CN, Cat. No. 380-0080; 0.45 μm, Corning CA, Cat. No. 431155; 0.20 μm, Nalgene PES, Cat. No. 165-0020) were loaded on the Omni columns at a linear velocity (LV) of 50 cm/H (flow rate (FR)=1.5 ml/min; residence time (RT)=6.7 minutes). The flow-through was collected in column volumes. After pooling fibrinogen-depleted plasma (50 ml), the flow-through was loaded onto a column comprising a resin displaying an Apo-A1 lipoprotein-binding ligand (D-WWLHIN (SEQ ID NO: 33)), as described below. The fibrinogen-binding column was washed with 12 CVs of EQ buffer and the fibrinogen eluted with 10 CVs of 0.3 M glycine, 0.5 M NaCl, pH 9.0. The column was regenerated with 10 CVs of 2% Sarkosyl, pH 8.0, followed by 10 CVs of 2.0 M guanidine (GuHCl). After washing with 5 CVs of distilled water, the column was further cleaned with 6 CVs of 30% ethanol and 6 CVs of 70% ethanol containing 2% acetic acid. […]

[2] = target: T1, API (Homo sapiens, UniProt P01009); assay: Preparation of fibrinogen- and Apo-A1-depleted plasma: API in flow-through (Example 5); type: binding; settings: after chromatography on the named resin
T1 construct: from tissue; host or cells: human plasma (whole, fibrinogen-depleted or F1-Apo-depleted)
T1 sequence (P01009 25-418): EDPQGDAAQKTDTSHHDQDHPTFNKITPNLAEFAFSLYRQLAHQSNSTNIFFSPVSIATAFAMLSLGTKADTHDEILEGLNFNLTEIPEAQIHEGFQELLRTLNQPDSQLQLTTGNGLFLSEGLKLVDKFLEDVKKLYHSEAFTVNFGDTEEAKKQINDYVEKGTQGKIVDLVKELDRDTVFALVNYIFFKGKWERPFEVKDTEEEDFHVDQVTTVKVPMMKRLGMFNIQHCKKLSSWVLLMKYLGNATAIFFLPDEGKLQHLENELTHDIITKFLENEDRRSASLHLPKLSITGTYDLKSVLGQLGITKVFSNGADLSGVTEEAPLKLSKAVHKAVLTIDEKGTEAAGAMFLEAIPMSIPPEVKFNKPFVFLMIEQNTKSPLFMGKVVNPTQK
Procedure: as §1

[3] = target: T2, fibrinogen (Homo sapiens, UniProt P02671+P02675+P02679); assay: Preparation of fibrinogen- and Apo-A1-depleted plasma: fibrinogen capture (Example 5); type: binding; settings: nephelometric and clotting analysis
T2 construct: from tissue; host or cells: human plasma
T2 sequence (P02671 20-629 limits assumed): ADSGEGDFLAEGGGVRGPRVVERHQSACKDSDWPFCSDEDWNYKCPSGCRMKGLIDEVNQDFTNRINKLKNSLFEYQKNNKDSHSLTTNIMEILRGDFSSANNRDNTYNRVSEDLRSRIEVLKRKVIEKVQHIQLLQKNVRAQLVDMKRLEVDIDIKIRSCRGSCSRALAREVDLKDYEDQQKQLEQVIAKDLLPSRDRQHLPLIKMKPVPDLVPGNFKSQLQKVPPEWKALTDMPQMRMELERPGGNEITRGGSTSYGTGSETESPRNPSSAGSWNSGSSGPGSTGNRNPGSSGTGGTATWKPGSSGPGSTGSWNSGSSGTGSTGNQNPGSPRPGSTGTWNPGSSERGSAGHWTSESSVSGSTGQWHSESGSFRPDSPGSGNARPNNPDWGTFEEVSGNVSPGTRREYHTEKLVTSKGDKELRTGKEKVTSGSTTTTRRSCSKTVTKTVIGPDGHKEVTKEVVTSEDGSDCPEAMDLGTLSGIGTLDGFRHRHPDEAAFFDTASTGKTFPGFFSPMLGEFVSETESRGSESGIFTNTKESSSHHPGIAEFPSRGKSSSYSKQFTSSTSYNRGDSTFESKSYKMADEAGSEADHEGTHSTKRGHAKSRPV
T2 sequence (P02675 31-491): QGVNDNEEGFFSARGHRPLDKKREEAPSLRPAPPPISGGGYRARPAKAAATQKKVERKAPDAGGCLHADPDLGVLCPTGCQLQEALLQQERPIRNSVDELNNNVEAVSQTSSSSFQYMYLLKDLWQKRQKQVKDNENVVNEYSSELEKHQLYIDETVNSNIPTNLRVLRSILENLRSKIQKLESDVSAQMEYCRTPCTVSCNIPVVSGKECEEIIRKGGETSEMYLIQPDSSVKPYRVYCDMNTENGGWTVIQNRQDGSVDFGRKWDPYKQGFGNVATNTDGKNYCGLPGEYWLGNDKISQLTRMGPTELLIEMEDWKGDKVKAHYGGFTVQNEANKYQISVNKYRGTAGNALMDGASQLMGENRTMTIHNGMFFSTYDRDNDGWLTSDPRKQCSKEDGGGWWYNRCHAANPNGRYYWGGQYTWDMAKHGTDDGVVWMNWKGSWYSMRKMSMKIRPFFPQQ
T2 sequence (P02679 27-433 limits assumed): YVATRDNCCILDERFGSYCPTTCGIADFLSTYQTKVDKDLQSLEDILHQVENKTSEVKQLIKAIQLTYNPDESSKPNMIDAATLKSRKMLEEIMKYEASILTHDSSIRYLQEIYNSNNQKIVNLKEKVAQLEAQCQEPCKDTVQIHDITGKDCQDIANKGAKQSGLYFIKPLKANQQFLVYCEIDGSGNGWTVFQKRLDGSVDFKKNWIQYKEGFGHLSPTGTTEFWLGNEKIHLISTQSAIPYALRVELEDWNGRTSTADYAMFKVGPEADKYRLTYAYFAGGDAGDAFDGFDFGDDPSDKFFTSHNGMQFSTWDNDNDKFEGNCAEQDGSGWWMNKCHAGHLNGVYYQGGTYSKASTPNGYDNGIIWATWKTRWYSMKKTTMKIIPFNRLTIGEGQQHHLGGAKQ
Procedure: as §1

[4] = target: T2, fibrinogen; assay: Purification of fibrinogen from plasma by affinity chromatography on D-ARQFDF resin (Example 2); type: binding
Procedure: ToyoPearl AF-Amino 650 M resin beads displaying dried D-ARQFDF (SEQ ID NO: 20) peptide via an epsilon amino caproic acid (EACA) spacer were suspended in 20% methanol for a minimum of 2 hours before equilibration in 0.12–0.15 M NaCl, 0.020 M sodium citrate, pH 6.5–7.5. For 2.0–2.1 ml columns, about […] of resin was obtained. The resin was subsequently packed in an Omni Column of 1.0–1.5 cm diameter and evaluated either on an ÄKTAExplorer System or BIO RAD BioLogic LP. Optical density at 280 nm–320 nm and conductivity was constantly monitored during the evaluations. Flow rates were selected according to column size to achieve linear velocities of 30–60 cm/hour and residence times between 5–8 minutes.
All evaluations were performed at room temperature with cryo-rich plasma that had been 0.8 μm and 0.45 μm filtered. A linear velocity (LV) of […] was maintained throughout the experiments. Fifty milliliters of plasma was applied at 1.5 ml/min (RT=6.7) onto 10 ml column (height 5.7 cm, CF=1.77 cm^2) that had been equilibrated with 0.14 M NaCl, 0.020 M sodium citrate, pH 7.0 (EQ buffer). After the column was washed with EQ buffer to baseline, the fibrinogen was eluted with 0.3 M glycine, 0.5 M NaCl at pH 9.0 (10 CV). The column was regenerated with 2% Sarkosyl, 2.0 M guanidine-HCl, 30% ethanol, followed by a 70% ethanol/2% acetic acid mixture and stored in 20% methanol.

[5] = target: T3, albumin (Homo sapiens, UniProt P02768); assay: Albumin recovery in Apo-A1 purification run (Example 4); type: binding; settings: load 372 mg
T3 construct: from tissue; host or cells: human plasma (fibrinogen-depleted or F1-Apo-depleted)
Procedure: (§2) Apo-A1 lipoprotein purification was accomplished with D-WWLHIN (SEQ ID NO: 33) peptides and several analogs. Indeed, about 100% Apo-A1 lipoprotein depletion from plasma was repeatedly obtained with D-WWLHAN (SEQ ID NO: 56) and D-WWLHIN (SEQ ID NO: […]). Fourteen milliliters of fibrinogen-depleted plasma was loaded onto a 2.3 ml column (CF=0.785 cm^2) at 0.4 ml/min. (LV=30 cm/H; RT=5.8) that had been equilibrated with 0.14 M NaCl, 0.020 M sodium citrate, pH 7.0 (EQ buffer). After the column was washed with EQ buffer to baseline, Apo-A1 lipoprotein was eluted with 2.0 M NaCl, 1% Tween-20, 0.020M sodium citrate, pH 7.0. The column was regenerated with 2.0 M guanidine-HCl, 2% Sarkosyl, and 2% acetic acid and stored in 20% methanol.

[6] = target: T4, Apo-A1 lipoprotein (Homo sapiens, UniProt P02647); assay: Apo-A1 lipoprotein purification from fibrinogen-depleted plasma on peptide resin column (Example 4); type: binding; settings: for removal / depletion of Apo-A1 lipoprotein in flow-through: fibrinogen-depleted plasma, 14 ml on 2.3 ml resin, SDS-PAGE
T4 construct: from tissue; host or cells: human plasma (whole or fibrinogen-depleted)
T4 sequence (P02647 25-267 limits assumed): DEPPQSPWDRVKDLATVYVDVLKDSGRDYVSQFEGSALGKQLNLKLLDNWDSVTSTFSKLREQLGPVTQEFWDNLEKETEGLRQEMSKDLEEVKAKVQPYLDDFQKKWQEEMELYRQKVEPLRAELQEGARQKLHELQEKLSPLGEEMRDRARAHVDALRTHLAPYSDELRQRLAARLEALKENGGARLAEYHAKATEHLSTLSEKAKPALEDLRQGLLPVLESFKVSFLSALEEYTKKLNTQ
Procedure: as §2

[7] = target: T1, API; assay: API recovery in Apo-A1 purification run (Example 4); type: binding; settings: load 10.6 mg
Procedure: as §2

[8] = system: paraoxonase; settings: without use of detergent
Excerpt: Paraoxonase, or any plasma protein, can be recovered from the isolated or purified peptide of the invention coupled to a bead (i.e., a support) by several different approaches, including washing beads with buffers with high and low ionic strength, high and low pH, or buffers comprising up to 50% of ethylene glycol and different detergents.

[9] = system: paraoxonase; settings: after 1 hour incubation with resin at 37° C.; rabbit serum diluted 1/10
Procedure: Paraoxonase binding to a WWLHAN (SEQ ID NO: 56)-displaying resin was evaluated according to the following protocol. Rabbit serum diluted 1/10 times with PBS ([…]) was incubated in a rotating Eppendorf tube with 50 μl of D-WWLHAN (SEQ ID NO: 56)-displaying resin suspension containing approximately […] of resin. The resin was previously soaked in 20% methanol overnight and washed 3 times with PBS to remove the methanol traces and resuspended in paraoxonase assay buffer (20 mM Tris pH 8.0, 150 mM NaCl, and 2 mM CaCl2). After 1 hour incubation at 37° C., resin beads were precipitated by centrifugation at 8000 g for 1 min in an Eppendorf microcentrifuge. Supernatants were transferred into separate Eppendorf tubes and resin bead pellets were resuspended in equal volumes of paraoxonase assay buffer. Paraoxonase activity of resin bead suspensions and supernatant solutions was measured. In particular, 100 μl of paraoxonase assay buffer containing 100 μm of DEPFMU (a fluorogenic substrate for paraoxonase detection) was mixed with […] of supernatant or 10 μl of resin bead suspension, or the original serum solution in a standard microtiter plate well. After thorough mixing, the plate solution was incubated for 20 minutes at 37° C. Hydrolysis of DEPFMU was quantified by measuring the fluorescence level at […] using a commercial fluorometer. The level of fluorescence correlates with the level of 6,8-difluoro-4-methylumbelliferyl released from DEPFMU as a result of paraoxonase-mediated hydrolysis. The actual amount of 6,8-difluoro-4-methylumbelliferyl released in the assay can be calibrated with a known amount of 6,8-difluoro-4-methylumbelliferyl.
Several different D-WWLHIN (SEQ ID NO: 33) analogs were screened for the ability to bind to paraoxonase under the conditions described in Example 7. For this experiment, the following resins were tested: WWLHAN (SEQ ID NO: 56), AWLHIN (SEQ ID NO: 59), WALHIN (SEQ ID NO: 60), WWAHIN (SEQ ID NO: 61), WWLHIA (SEQ ID NO: 63), WYLHIN (SEQ ID NO: 35), WWLFIN (SEQ ID NO: 36), and na1′WLHIN (SEQ ID NO: 40).

Row | Substance | Apo-A1 lipoprotein detected in the flow-through ([1]; after treatment with the named resin) | API recovered in the flow-through [2] | fibrinogen captured [3] [%] | Total Fibrinogen ([4]; Elution, plasma load 51 mg) | Fibrinogen ([4]; Flow thru + Post wash, fibrinogen antigen (nephelometric analysis), plasma load 25 ml, 2.04 mg/ml) [mg/mL] | runs with minimal changes in performance, dynamic resin capacity, or purity of fibrinogen eluates ([4]; resin reuse) | dynamic resin capacity ([4]; resin-to-plasma ratios of 1:3.5 to 1:4.5, peptide ligand densities 0.67–0.94 mmol/g resin) | Albumin Flow Through [5] [mg] | Apo-A1 Elution ([6]; 2.0 M NaCl, 1% Tween-20 eluate, load 12.9 mg) [mg] | removal / depletion of Apo-A1 lipoprotein in flow-through [6] | removal / depletion of Apo-A1 lipoprotein in flow-through ([6]; listed as WFLHIN) | API Flow Through [7] [mg] | Apo-A1 lipoprotein detection after treating with the resin ([1]; nephelometry and SDS-PAGE analysis) | paraoxonase activity eluted from the beads into the supernatant [8] | original paraoxonase activity remaining in the serum [9] | Apo-A1 lipoprotein depletion from plasma [6]
1 | D-ARQFDF ([dA]RQFDF; not fully specified (residues 2, 3, 4, 5, 6, C-terminus)) | Ninety | 100% | 100 | 54 mg and 46 mg | <0.15 | over 15 runs | 6–8 g/L of resin |  |  |  |  |  |  |  |  | 
2 | WFLHIN ([dW]FLHIN; not fully specified (residues 2, 3, 4, 5, 6)) [D-WFLHIN] |  |  |  |  |  |  |  | 386 | 9.1 | Complete Apo-A1 lipoprotein depletion | complete removal | 12.5 |  |  |  | 
3 | WWLHAN ([dW]WLHAN; not fully specified (residues 2, 3, 4, 5, 6)) [D-WWLHAN] |  | 90–95% |  |  |  |  |  |  |  |  |  |  | no Apo-A1 lipoprotein could be detected | No paraoxonase activity was eluted | less than 4% | about 100%
